Values quoted from earlier work, collected in publication PMC8801382.

Legend:
[1] = molecular target: beta-globin (Homo sapiens) (UniProt P68871)
[2] = molecular target: alpha-globin (Homo sapiens) (UniProt P69905)

Chain of UniProt P68871 (P68871 2-147): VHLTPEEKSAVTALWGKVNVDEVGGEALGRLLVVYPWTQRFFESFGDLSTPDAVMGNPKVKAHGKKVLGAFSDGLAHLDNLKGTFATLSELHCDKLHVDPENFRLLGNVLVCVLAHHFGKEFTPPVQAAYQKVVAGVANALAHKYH

## alpha-globin (from UniProt P69905)
[1]
  Kd: 0.001 nM

## AHSP (from UniProt Q9NZD4)
[2]
  Kd: 17 nM
